In PMC7893820:

Molecular target: mGFP-tagged N-RasG12V (UniProt P01111)
Assay: FRET or BRET; FLIM-FRET in fixed HEK293 EBNA cells co-transfected with donor mGFP-NRasG12V and acceptor mCherry-PDE6δ plasmids (1:3); apparent FRET efficiency from the donor's lifetime; cells with scrambled siRNA in 0.1% DMSO (control), ICMT siRNA, or 2.5 μM deltarasin for 24 h

Chain of mGFP-tagged N-RasG12V (P01111 whole entry G12V): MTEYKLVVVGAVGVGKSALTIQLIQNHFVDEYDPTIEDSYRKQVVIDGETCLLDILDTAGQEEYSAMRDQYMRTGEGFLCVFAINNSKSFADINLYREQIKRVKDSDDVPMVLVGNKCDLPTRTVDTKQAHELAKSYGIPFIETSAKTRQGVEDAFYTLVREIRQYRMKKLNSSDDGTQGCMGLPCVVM
Chain of mCherry-tagged PDE6δ (O43924 whole entry, stated change not applied): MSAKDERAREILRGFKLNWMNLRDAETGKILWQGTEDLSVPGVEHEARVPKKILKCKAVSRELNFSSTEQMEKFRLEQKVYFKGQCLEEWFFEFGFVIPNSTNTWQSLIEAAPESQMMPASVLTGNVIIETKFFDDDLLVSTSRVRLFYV

reduction of FRET efficiency with 2.5 μM deltarasin: 50%
Substance: mCherry-tagged PDE6δ (from UniProt O43924 1-150) (natural protein)
